The values that follow are results of earlier work, collected in paper PMC9256959.

A word on the Kd: it is the constant that tells how readily two partners part at equilibrium.

This data set deals with AMH mature ligand mature domain (Homo sapiens) (UniProt P03971).

Consider “AMH prodomain prodomain (from UniProt P03971)”, for which the Kd was 0.4 pM.
